Experimental data from US20140274874A1 (Amgen, published 2014).

T1: MMP2 (human pro-MMP2 activated with APMA) (human, UniProt P08253 30-660)
T1 sequence (looked up): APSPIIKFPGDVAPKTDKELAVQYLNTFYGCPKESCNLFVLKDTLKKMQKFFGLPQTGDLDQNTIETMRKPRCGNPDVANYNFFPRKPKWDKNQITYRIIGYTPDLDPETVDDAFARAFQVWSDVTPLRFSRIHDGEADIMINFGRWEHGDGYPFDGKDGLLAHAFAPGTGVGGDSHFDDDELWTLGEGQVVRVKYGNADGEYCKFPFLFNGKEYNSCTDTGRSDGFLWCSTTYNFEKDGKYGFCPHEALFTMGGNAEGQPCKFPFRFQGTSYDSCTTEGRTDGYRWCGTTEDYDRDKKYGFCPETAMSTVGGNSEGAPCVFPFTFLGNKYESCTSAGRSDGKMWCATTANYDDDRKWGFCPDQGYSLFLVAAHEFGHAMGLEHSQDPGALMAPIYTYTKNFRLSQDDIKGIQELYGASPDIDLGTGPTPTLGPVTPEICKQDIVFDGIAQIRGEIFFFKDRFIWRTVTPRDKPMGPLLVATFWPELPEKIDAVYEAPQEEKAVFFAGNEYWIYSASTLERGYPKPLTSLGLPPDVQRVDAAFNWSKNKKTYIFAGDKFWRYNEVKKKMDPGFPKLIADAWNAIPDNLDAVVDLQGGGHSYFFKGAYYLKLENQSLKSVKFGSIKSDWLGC


Tests used:
Assay in all cases: cell-based or functional assay
[1] = molecular target: MMP13 (active MMP13, or pro-MMP-13 activated with APMA) (UniProt P45452 20-471, limits assumed)
[2] = molecular target: catalytic domain of human MMP9 (human, UniProt P14780 107-444, limits assumed)
Sequence of catalytic domain of human MMP9 (P14780 107-444 limits assumed): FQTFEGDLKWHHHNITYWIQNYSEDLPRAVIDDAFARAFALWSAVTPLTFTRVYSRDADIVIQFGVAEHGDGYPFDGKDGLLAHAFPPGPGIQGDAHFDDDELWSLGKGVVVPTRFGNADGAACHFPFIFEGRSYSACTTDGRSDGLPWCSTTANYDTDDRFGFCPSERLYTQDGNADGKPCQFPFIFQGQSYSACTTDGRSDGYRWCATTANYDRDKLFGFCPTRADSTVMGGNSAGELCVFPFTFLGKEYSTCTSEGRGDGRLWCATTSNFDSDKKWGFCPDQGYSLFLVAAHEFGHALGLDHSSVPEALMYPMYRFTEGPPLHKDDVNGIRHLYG

[3] = molecular target: T1, MMP2 (human pro-MMP2 activated with …)

Row | Binder | MMP13 IC50 [1] [pM] | MMP9 IC50 [2] [pM] | MMP2 IC50 [3] [pM]
1 | wild-type TIMP-3 (native human tissue inhibitor of metalloproteinase 3) (other) CTCSPSHPQDAFCNSDIVIRAKVVGKKLVKEGPFGTLVYTIKQMKMYRGFTKMPHVQYIHTEASESLCGLKLEVNKYQYLLTGRVYDGKMYTGLCNFVERWDQLTLSQRKGLNYRYHLGCNCKIKSCYYLPCFVTSKNECLWTDMLSNFGYPGYQSKHYACIRQKGGYCSWYRGWAPPDKSIINATDP | 900 | 1000 | 600
2 | TIMP-3 mutein P56N, G58T (other) CTCSPSHPQDAFCNSDIVIRAKVVGKKLVKEGNFTTLVYTIKQMKMYRGFTKMPHVQYIHTEASESLCGLKLEVNKYQYLLTGRVYDGKMYTGLCNFVERWDQLTLSQRKGLNYRYHLGCNCKIKSCYYLPCFVTSKNECLWTDMLSNFGYPGYQSKHYACIRQKGGYCSWYRGWAPPDKSIINATDP | 3100 | 2300 | 1000
3 | TIMP-3 mutein F57N (other) CTCSPSHPQDAFCNSDIVIRAKVVGKKLVKEGPNGTLVYTIKQMKMYRGFTKMPHVQYIHTEASESLCGLKLEVNKYQYLLTGRVYDGKMYTGLCNFVERWDQLTLSQRKGLNYRYHLGCNCKIKSCYYLPCFVTSKNECLWTDMLSNFGYPGYQSKHYACIRQKGGYCSWYRGWAPPDKSIINATDP | 500 | 4600 | 500
4 | TIMP-3 mutein K45S, F57N (other) CTCSPSHPQDAFCNSDIVIRASVVGKKLVKEGPNGTLVYTIKQMKMYRGFTKMPHVQYIHTEASESLCGLKLEVNKYQYLLTGRVYDGKMYTGLCNFVERWDQLTLSQRKGLNYRYHLGCNCKIKSCYYLPCFVTSKNECLWTDMLSNFGYPGYQSKHYACIRQKGGYCSWYRGWAPPDKSIINATDP |  | 4000 | 300
5 | TIMP-3 mutein T63N, K65T (other) CTCSPSHPQDAFCNSDIVIRAKVVGKKLVKEGPFGTLVYNITQMKMYRGFTKMPHVQYIHTEASESLCGLKLEVNKYQYLLTGRVYDGKMYTGLCNFVERWDQLTLSQRKGLNYRYHLGCNCKIKSCYYLPCFVTSKNECLWTDMLSNFGYPGYQSKHYACIRQKGGYCSWYRGWAPPDKSIINATDP | 2200 | 500 | 800
